Experimental data taken from the DeepSol protein solubility set.

experiment: soluble on expression in E. coli; label from the status in PepcDB or PDB records

Row | Sequence | soluble on expression in E. coli
1 | NKDFEWSTTGTFSLNSNKLISLSGSIFKSDYDYFNTGTVEYSGQVADSHRVQVGESIGNFYGFKVVDVDSEGRWIYEDRNGELVNYKDFTHAPEDKHVIGNGLPKWYAGWNNTLRYKNFDLNVTMRGAFGFQIINGGRMNYENVKNSRFENRLKSVNDLVFGKHTLSPEVEPEFNSYYVEDGDYWKIDNITLGYSFGQVGKYIKSLRIYGSVLNALTITGYKGIDPEVSTDGLTPGYDTRDRYPSVRSFTFGVNVKF | not soluble
2 | MQDADKLPHTKVTLVAPPQVHPHEQATKSGPKVVEFTMTIEEKKMVIDDKGTTLQAMTFNGSMPGPTLVVHEGDYVQLTLVNPATNAMPHNVDFHGATGALGGAKLTNVNPGEQATLRFKADRSGTFVYHCAPEGMVPWHVVSGMSGTLMVLPRDGLKDPQGKPLHYDRAYTIGEFDLYIPKGPDGKYKDYATLAESYGDTVQVMRTLTPSHIVFNGKVGALTGANALTAKVGETVLLIHSQANRDTRPHLIGGHGDWVWETGKFANPPQRDLETWFIRGGSAGAALYTFKQPGVYAYLNHNLIEAFELGAAGHIKVEGKWNDDLMKQIKAPAPIPR | soluble
3 | MGSDKIHHHHHHMIMSEKSIVQEARDIQLAMELINLGARLQMLESETQLSRGRLIRLYKELRGSPPPKGMLPFSTDWFMTWEQNIHASMFCNAWQFLLKTGLCSGVDAVIKAYRLYLEQCPQPPEGPLLALTRAWTLVRFVESGLLELSSCNCCGGNFITHAHQPVGSFACSLCQPPSRAVKRRKLSRDAADIIPQLLDEQIEQAV | not soluble
4 | DDSLGEAVTTRAEALTIPAVLRARNLLSTTVARTPLVCDGTLPPFVPVAAPPGAATMQTPFHRMLATADDLLFNGVACWALDRDESGTCIGAIHIPLDTWQIEENTVRVNGKAVDPMEVCIFVGIHGGLLTHASETFTDARNLVRAAARVAQNPAALIELRQTNNAQLSPDDVDRIINGYVAARRGRNSGVGFSSSGLEVHEHEMAKENLLIEGRNAAAVDVARAMNVPAAFIDATVGGTSLSYQNAASRMIELVTFGVEPLMSAIEARLNQPDMHADHLANPLKFDPAALLDAIPTTPTIGAQPHGENS | soluble
5 | MGSSHHHHHHSSGLVPRGSHMASMTGGQQMGRGSMIIDDLLTKKIIKPRPLNSHKGTFGRVLLIGGNYPYGGAIIMAALACVNSGAGLVTVATHKDNITALHSHLPEAMAFDMVEKDRLSEQITAADVVLMGPGLAEDDLAQTTFDVVWQAIEPKQTLIIDGSAINLLAKRKPAIWPTKQIILTPHQKEWERLSGLTIPEQIEAATQTALAHFPKETILVAKSHQTKIYQGQKIGHIQVGGPYQATGGMGDTLAGMIAGFVAQFHTDRFEVAAAAVFLHSYIADQLSKEAYVVLPTRISAEITRVMKEMSE | soluble
6 | GPGSMSVSATPYKRQDAITAKTVLLGESAVGKSSIALRFARNEFSSNQETTIGAAFLSRSVTVSATSQSGGGGAVANAASGTIKFEIWDTAGQERYRSLAPIYYRGACGALVVYDITSAESLKKAQMWMRELRANADPTLLIILVGNKKDMESLRQVSYEDGAAVAQEEDVNGFFEVSAKENVNVEEVFAKLARLLLEHGLGANSGPGSLSGPRGAQRLEPPTRQQKKEGGCAC | not soluble
7 | MAELRETLERLASFRPQNYYVSTLYLRLMPEDRQDNKYLRVYKDLVKKKEKDLENLNLDKEVLDSIRGDIKNIQDFLSDPKNLYNCRGIAIFSCSKLGLFEYVKLPYVYRNRLMFSPDPLVREIAAIDEEFGRVAVLLLDRKHIRYFLMDITGIEEKLDFLEPMTTRAHRFHSGGALLKGAEGTFQYRMPARGAAPNVVQHGMGEWRFHMRLREEWHRILKLASDALFEEWKRIHFDKLIIGGFIEEGLREIENFLHPYVKEKLVGYIEITPEEATPHQVWEKALDLLWQKDREQEKEIIKELEELKGWGLAVNGTSEVLEMLAIGNVRTLILPEDFEKPGYLCPQSHLAFLKPECPLPEEKPIPVSDVVDEALEEALDQRATIEVIIDKELQKKVDGLAAFLRFKL | not soluble
8 | MGSDKIHHHHHHNSDVPENTHLVSKEVQAAFNAKYPQAKDVEWELKGDYAVADFYWDGGEHSAWFNPLSAAWYMTETDVRYENLPEPVLAAHKAGKYADWRVDDVDKLTREGMETLYVIEVEKGESELDLFYSSTGILVKTVVDTGHEEDYDDYLPQPDANGIIAIVKQKYPNATIVEIEREKGLQEVTILDENKEKEVYFNERNEWMGTSWDVQVANLPEAVKKSVMEKYSDYVIDDADYVVTPDNEWYILDLENKQIDKELKVKVDKDGVWL | not soluble
9 | MGSDKIHHHHHHMNQSRLICFVALLFVLSGCQGKPVTIPEEDGPMVVVSHIKESTFSFISKNKMELLETEESPYPLTAMVDIEGGQIVVTSQTEDTLFLFDTVQGKILPFITLNKGLTVMEFDRAKRMLFVADTLNDEIIQIDVDKREVQTRIAIDCSPTDLQVIDDLLFILSSETSTVFIYDMRSETMIQSFSVTERPAGMFYDGSHLWIGGHGPYGDLNKRIFAYNIKTGVIDQEVEVGLMPITIYQDQHDTYVYVLCHGDDALYKVDLDAKRVEASLSVGHNPYYLKGDGDHLYVSNLDDDTFSIIERTTFQVVNEINVPAGPYAIVLEEEE | not soluble
10 | MADVALRITETVARLQKELKCGICCSTYKDPILSTCFHIFCRSCINACFERKRKVQCPICRSVLDKRSCRDTYQITMAVQNYLKLSEAFKKDIENMNTFKSLPPEKMFMESQMPLDITIIPENDGKRCAPDFAIPFLPVRRKRPSRPQPPSAFAEEPAEPVEPPEPATKQPVELQSRVFPLEKLKKDVETSTETYKISREELKNVDIEEYINTLRENSTEIDEIDALFQLMPTMRQFLRNNINQLMEKFHVAPPKKSEKPANRRVSFASSQDLENIKIMTASESLETPPEPIQKLAQKPEVFKSTQNLIDLNLNTAVKKPVVVASDDDEVVEDSEGELQIDEDDLANVTCATSVRNIGKSLCAEYIREGRSISQKSTAYLYAIARKCVIVGRQWLVDCITTGLLLSEADYTITSCSSTIPVKIPPSIGSEMGWLRSRNDEHGKLFAGRRFMILRKFTMNPYFDYKQLIELVQQCGGEILSCYENLSPEKLYIIFSKHSKAIEESKNIENLYKCDVVTMEWVLDSISEYLILPTQPYKAVDSIGCLQD | not soluble
11 | MAHPQEIREKLRRLYVSGEQTLETAALMCEIPQTTARAWKRADKEKGDDWDKMRAAYTLAGGGIEDLSRAMLAGFMVQYNSTMTMLQDSSTEDLPPSDRAKLLASLADAFTKTVSANARVMPETSKLATALELIEFLMAFVQEKHPKHLPAFVEVLEPFGVEVEKKFG | not soluble
12 | MKPSTSKTTHSPPPEEPTAPFVNDNLPNPEDEPTIGDLNAFHSGEELHRQRSELARANYEKARPEMIANQRAVTAHLFNRYTEDEERKRVEQQKNKEAMNASTSAPTSSRNGGQSVENRKRRNDVVVAPPTSEEEWKRAQQQHWMGQQQPQMQFQMQQQYHSQQQQYIMMQQQHHHMTGMQQIHHQMPSTSSADSIRSVPTPASSMHQPSPAEMRNGCGMSRNATMDMTCSPMSGGQPIVDENNLAVPEGEWFDKLALAVAEQYNVDTILGPDTYDTFLAELDFSSSESPTKQSPMEMNGDRMPSTAPPPAQNPQHIAQLQQQQNKMRLMQQQQQEMQRIEQQRRQQIMQQQQQQQQQEHQRQQMLLQQQQQQQQMQQHHQMNGGGQFATQAHQQAAYMQQMQRMEQIRHQQQQAQQHQQAQQQHQQQAQHHQMGYGIPNGYPQQMHMHPPAYGAHHMPQPTAFANIN | not soluble
13 | MSLSKNVTYEGIYVENINVSNLNEKDLKEKLNEHYSDLLNNFKITFNYKDNFNETFSAKDLGFFFDINDLSNQVFSFGKNSNIFSNTIERLKLKSNPKYFQFKPESNSEVLSEKLSEISNKINKEKVEPTISFSNDSISATKEQIGYKLDLEKLTSEIVNDLNNSHDSLNCTINIPVEEIKPKLTQETVNNMVILGSYTTKLPSLTGGRTKNISNYLSKLNGTILMPGDIFSADKEGEDRTESNGYTYAPGYIGNKVVDILAGGICQGVTTLYNSVLYADLKIVERAPHSLPVTYAPIGRDATMASGVIDFKFQNNMNNPVIVQTYITSSGQVKSNIWGIKEDPGKEIVISVDQHGPKSSTTYKETYENGVLVKKEVLSKDKYNEGHHHHHH | soluble
